Source: doi:10.1101/2024.08.12.607649 (bioRxiv, 2024)

Target: T1, Msn5_(βC-helix-tail) (residues 1179-1224 removed) (S. cerevisiae, UniProt P52918 1-1178)
T1 sequence (looked up): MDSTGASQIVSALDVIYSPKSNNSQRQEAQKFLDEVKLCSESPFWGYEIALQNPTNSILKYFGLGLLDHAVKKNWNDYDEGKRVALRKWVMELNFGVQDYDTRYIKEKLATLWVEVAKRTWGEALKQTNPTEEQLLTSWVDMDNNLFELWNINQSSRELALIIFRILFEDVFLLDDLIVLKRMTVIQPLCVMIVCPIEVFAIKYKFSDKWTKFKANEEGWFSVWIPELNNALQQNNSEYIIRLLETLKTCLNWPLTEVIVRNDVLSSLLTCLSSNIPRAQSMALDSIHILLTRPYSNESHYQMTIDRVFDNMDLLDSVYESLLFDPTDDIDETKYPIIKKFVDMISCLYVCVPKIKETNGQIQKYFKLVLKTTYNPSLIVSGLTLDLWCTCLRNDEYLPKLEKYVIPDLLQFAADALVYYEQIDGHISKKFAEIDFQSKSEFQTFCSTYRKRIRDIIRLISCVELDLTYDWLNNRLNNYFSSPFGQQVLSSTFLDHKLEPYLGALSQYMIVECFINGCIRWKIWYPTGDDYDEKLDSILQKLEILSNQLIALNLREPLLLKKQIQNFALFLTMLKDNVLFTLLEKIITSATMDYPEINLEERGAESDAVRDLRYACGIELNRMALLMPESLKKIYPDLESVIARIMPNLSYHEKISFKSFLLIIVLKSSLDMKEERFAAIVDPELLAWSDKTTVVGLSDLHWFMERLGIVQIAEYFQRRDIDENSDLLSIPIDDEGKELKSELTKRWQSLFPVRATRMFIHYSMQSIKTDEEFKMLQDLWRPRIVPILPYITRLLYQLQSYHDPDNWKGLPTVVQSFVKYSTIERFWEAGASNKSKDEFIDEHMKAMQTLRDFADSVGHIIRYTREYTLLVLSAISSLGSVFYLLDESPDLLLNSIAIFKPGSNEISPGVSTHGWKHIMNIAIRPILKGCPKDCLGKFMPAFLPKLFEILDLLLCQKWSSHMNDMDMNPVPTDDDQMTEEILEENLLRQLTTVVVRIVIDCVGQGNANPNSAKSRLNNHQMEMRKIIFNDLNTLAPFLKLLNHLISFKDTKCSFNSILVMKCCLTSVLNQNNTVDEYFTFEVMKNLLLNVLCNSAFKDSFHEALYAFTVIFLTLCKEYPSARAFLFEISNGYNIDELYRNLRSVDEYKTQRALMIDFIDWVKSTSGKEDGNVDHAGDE
Test: pull-down

B1: GST-pPho4_(1-200) (domain or fragment, S. cerevisiae, UniProt P07270 1-200, looked up)
chain: MGRTTSEGIHGFVDDLEPKSSILDKVGDFITVNTKRHDGREDFNEQNDELNSQENHNSSENGNENENEQDSLALDDLDRAFELVEGMDMDWMMPSHAHHSPATTATIKPRLLYSPLIHTQSAVPVTISPNLVATATSTTSANKVTKNKSNSSPYLNKRRGKPGPDSATSLFELPDSVIPTPKPKPKPKQYPKVILPSNST
modifications: phosphoserine at 100, 114, 128, 152 (in vitro phosphorylation by Pho80-Pho85)
binding result: binds
